According to patent US20150151000A1 (INDIANA UNIVERSITY RESEARCH AND TECHNOLOGY, published 2015):

Key:
[1] = biological target: CRMP2 (endogenous, rat brain synaptosomes, rat brain lysates and rat dorsal root ganglia lysates) (rat, UniProt P47942 1-572); experiment: SPOTS peptide array overlaid with rat brain synaptosome fraction, anti-CRMP2 far-Western
[2] = biological target: T1, CRMP2-His (recombinant collapsin response mediator protein 2, NT647-labeled); experiment: microscale thermophoresis, NT647-labeled CRMP2 constant, peptide titrated 0 to 5 µM, Hill fit
T1 construct: Purified on Talon resin and labeled with NT647 for microscale thermophoresis; also called recombinant CRMP2; NT647-labeled CRMP2

| Binder | binding result [1] | Kd [2] [nM] |
| --- | --- | --- |
| YLDWITQAEDIDPEN (Immobilised 15-mer spot; also called L1 peptide of L (CaV1.2)-type channel) [L1 (CaV1.2) peptide] | binds |  |
| NSSFPSIHCSSWSEE (also called Ct-Dis (CaV1.2 (L)); [2014-2028]; Ct-dis) [Ct-dis peptide (CaV1.2[2014-2028])] | binds | 640 |

Second part, the binder after the results:

| binding result [1] | Kd [2] [nM] | Binder |
| --- | --- | --- |
| binds | 3120 | YLEWIFKAEEVMLAE (15-mer from the first intracellular loop of CaV2.2; It was immobilised as a spot in the SPOTS array and used as a synthetic peptide in MST; also called L1 (CaV2.2); [388-402]; L1) [L1 peptide (CaV2.2[388-402])] |
| binds |  | YMEWISKAEEVILAE (Immobilised 15-mer spot; also called L1 peptide of P/Q (CaV2.1)-type channel) [L1 (CaV2.1) peptide] |
| binds |  | YRAWIDKAEEVMLAE (Immobilised 15-mer spot; also called L1 peptide of R (CaV2.3)-type channel) [L1 (CaV2.3) peptide] |
